Data reported in patent EP1165781B1 (ELI LILLY AND COMPANY, dated 2007).
Values belong to the molecule of their own block, whether it stands above or below them.

How the values were obtained:
[1] = biological target: FasLigand (monomer) (Homo sapiens (Human)) (UniProt P48023); experiment: SPR (Biacore 2000), FasL amine-coupled to CM5 chip, Fas in solution
[2] = biological target: T1, FLINT (FAS Ligand Inhibitory Protein), mature human FLINT (human, UniProt O95407 30-300); experiment: SPR (Biacore 2000), FasL amine-coupled to CM5 chip, FLINT in solution
T1 construct: also called mature FLINT; native FLINT
T1 sequence: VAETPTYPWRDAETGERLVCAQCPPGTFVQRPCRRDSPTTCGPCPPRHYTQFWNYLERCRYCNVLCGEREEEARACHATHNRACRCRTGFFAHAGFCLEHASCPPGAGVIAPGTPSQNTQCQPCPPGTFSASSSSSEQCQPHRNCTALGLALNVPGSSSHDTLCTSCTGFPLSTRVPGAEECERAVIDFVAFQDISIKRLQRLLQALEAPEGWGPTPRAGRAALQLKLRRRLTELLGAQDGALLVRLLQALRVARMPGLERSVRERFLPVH

Kd [1]: 0.162 µM
Molecule: Fas/Fc chimera (R&D Systems) (Fc fusion)

Kd [2]: 0.113 µM
B1: FasLigand (monomer) (ligand)
chain: QLFHLQKELAELRESTSQMHTASSLEKQIGHPSPPPEKKELRKVAHLTGKSNSRSMPLEWEDTYGIVLLSGVKYKKGGLVINETGLYFVYSKVYFRGQSCNNLPLSHKVYMRNSKYPQDLVMMEGKMMSYCTTGQMWARSSYLGAVFNLTSADHLYVNVSELSLVNFEESQTFFGLYKL
modifications: Amine-coupled through lysines to a CM5 chip.
notes: Amine-coupled to a CM5 chip; also called Fas Ligand (Kamiya Biomedical Company)
